The values that follow come from paper PMC12775393.

Assay [1] deals with E. coli MRE600 tight-couple 70S ribosome (natural), translating the V50 hairpin mRNA (E. coli (endogenous in MRE600)) (UniProt P0A7K2). Kind of assay: optical tweezers with single-molecule fluorescence detection (fleezers); hairpin unwinding assay; ribosome stalled on the V50 mRNA hairpin tethered between two beads at ~14 pN (13.5-14.5 pN); 10 nM Cy3-labeled EF-G in the translation mix, 1 mM GTP, 1x TLC buffer (40 mM HEPES pH 7.5, 60 mM NH4Cl, 10 mM Mg(OAc)2, 6 mM βME).

Assay [2] shares this target. Kind of assay: optical tweezers with single-molecule fluorescence detection (fleezers); hairpin unwinding assay as a1, with a mixture of 1 mM GTP and 0.5 mM GDPNP; slow population of a bi-exponential fit.
For assay [3] the target is unchanged. In words: optical tweezers with single-molecule fluorescence detection (fleezers); hairpin unwinding assay as a1, with a mixture of 1 mM GTP and 0.5 mM GTPγS; slow population of a bi-exponential fit.
Assay [4] has the same target. Kind of assay: optical tweezers with single-molecule fluorescence detection (fleezers); hairpin unwinding assay as a1, GDPNP:GTP ratio 1:9 at constant total nucleotide concentration; slow population of a bi-exponential fit.
The target is the same in assay [5]. In words: optical tweezers with single-molecule fluorescence detection (fleezers); hairpin unwinding assay as a1, GDPNP:GTP ratio 3:1 at constant total nucleotide concentration; slow population of a bi-exponential fit.
Assay [6] addresses S16-biotinylated E. coli 70S ribosome, translating the hairpin-less mRNA (E. coli) (UniProt P0A7K2). Kind of assay: optical tweezers with single-molecule fluorescence detection (fleezers); assisting force assay; ribosome tethered by biotinylated S16 to one bead and the 5' end of a hairpin-less mRNA to the other, 9-12 pN; Cy3-labeled EF-G in solution, GTP (1 mM stated for the H92Q and H92A mutants), 1x TLC buffer.

A value given as a limit tells only on which side of the number the result lay.

Regarding “Cy3-labeled H92Q EF-G (made from EF-G(S73C)) (from UniProt P0A6M8 1-704) (enzyme)”, the τ release (time between hairpin unwinding and EF-G release) in assay [1] was determined as 2 s.

With “Cy3-labeled EF-G, single-cysteine variant EF-G(S73C) (from UniProt P0A6M8 1-704) (enzyme)”, the τ release, slow (GDPNP) population in assay [2] turned out to be 8.5 s. In addition, in assay [3], the τ release, slow (GTPγS) population is 1.8 s. The τ release, slow (GDPNP) population in assay [4] stood at 2.5 s. The τ release, slow (GDPNP) population in assay [5] is 17 s. Further, the mean total dwell time of EF-G on the ribosome (τpre + τ post) in assay [6] was determined as 308 ms. Further, in assay [1], the mean dwell time of unproductive binding events (τ unproductive) was found to be 300 ms; the mean total dwell time of EF-G on the ribosome (τ unwinding + τ release) amounted to 445 ms; the τ release (time between hairpin unwinding and EF-G release) stood at 0.38 s.

Consider “Cy3-labeled H92A EF-G (made from EF-G(S73C)) (from UniProt P0A6M8 1-704) (enzyme)”, for which, in assay [6], the τ post (time between the mRNA step and EF-G unbinding) was over 20 s. The τ release (time between hairpin unwinding and EF-G release) in assay [1] is 20 s.
